Patent US20240066137A1, “NOVEL PROTEIN CONJUGATE, AND USE THEREOF FOR PREVENTING OR TREATING NONALCOHOLIC STEATOHEPATITIS, OBESITY AND DIABETES” (ONEGENE BIOTECHNOLOGY INC., priority 2020, published 2024)
One block for each substance: values may come before it.

Legend:
Test in all cases: cell-based or functional assay
[1] = molecular target: GLP-1 acceptor (UniProt P43220)
[2] = molecular target: GIP acceptor (UniProt P48546)
[3] = molecular target: FGFR1/KLB acceptor (UniProt P11362)
[4] = molecular target: IL-1RA acceptor (UniProt P14778)
Chain of IL-1RA acceptor (P14778 18-569 limits assumed): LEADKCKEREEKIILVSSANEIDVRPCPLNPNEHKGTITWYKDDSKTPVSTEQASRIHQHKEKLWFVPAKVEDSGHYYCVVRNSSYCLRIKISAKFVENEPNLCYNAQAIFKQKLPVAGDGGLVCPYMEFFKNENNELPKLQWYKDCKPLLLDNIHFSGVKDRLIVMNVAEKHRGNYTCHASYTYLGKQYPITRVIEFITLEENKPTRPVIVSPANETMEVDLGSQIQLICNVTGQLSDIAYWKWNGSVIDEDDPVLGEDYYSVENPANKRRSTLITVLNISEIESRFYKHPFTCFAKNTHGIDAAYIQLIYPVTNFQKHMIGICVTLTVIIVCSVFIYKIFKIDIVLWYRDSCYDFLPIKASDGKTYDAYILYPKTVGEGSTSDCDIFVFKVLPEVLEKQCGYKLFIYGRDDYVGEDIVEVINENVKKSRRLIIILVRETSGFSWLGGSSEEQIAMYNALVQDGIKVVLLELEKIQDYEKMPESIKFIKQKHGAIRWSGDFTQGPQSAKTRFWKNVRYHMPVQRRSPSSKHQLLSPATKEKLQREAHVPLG

Chain of FGFR1/KLB acceptor (P11362 22-822 limits assumed, chain 1 of 2): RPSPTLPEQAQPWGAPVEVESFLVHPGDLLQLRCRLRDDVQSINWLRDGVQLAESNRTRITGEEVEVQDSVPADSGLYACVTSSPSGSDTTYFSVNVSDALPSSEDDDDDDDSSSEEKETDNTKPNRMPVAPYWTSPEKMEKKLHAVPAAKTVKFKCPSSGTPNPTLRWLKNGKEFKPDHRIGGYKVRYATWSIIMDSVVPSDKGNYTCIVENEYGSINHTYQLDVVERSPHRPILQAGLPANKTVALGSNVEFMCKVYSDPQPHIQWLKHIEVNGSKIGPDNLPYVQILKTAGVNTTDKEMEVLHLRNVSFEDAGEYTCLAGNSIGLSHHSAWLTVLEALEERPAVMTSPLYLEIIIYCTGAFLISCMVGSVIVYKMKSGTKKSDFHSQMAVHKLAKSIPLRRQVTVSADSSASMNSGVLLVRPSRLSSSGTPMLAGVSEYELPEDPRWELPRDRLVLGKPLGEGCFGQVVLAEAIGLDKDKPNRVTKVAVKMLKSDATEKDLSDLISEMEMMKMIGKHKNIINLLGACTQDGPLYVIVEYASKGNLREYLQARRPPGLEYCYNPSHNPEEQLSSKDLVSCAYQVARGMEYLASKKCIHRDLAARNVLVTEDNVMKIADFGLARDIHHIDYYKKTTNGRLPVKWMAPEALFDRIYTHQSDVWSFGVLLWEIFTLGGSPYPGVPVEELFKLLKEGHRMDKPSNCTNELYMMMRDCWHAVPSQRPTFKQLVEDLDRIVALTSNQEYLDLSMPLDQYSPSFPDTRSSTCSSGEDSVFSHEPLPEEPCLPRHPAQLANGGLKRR
Chain of FGFR1/KLB acceptor (Q86Z14 whole entry, chain 2 of 2, further chain): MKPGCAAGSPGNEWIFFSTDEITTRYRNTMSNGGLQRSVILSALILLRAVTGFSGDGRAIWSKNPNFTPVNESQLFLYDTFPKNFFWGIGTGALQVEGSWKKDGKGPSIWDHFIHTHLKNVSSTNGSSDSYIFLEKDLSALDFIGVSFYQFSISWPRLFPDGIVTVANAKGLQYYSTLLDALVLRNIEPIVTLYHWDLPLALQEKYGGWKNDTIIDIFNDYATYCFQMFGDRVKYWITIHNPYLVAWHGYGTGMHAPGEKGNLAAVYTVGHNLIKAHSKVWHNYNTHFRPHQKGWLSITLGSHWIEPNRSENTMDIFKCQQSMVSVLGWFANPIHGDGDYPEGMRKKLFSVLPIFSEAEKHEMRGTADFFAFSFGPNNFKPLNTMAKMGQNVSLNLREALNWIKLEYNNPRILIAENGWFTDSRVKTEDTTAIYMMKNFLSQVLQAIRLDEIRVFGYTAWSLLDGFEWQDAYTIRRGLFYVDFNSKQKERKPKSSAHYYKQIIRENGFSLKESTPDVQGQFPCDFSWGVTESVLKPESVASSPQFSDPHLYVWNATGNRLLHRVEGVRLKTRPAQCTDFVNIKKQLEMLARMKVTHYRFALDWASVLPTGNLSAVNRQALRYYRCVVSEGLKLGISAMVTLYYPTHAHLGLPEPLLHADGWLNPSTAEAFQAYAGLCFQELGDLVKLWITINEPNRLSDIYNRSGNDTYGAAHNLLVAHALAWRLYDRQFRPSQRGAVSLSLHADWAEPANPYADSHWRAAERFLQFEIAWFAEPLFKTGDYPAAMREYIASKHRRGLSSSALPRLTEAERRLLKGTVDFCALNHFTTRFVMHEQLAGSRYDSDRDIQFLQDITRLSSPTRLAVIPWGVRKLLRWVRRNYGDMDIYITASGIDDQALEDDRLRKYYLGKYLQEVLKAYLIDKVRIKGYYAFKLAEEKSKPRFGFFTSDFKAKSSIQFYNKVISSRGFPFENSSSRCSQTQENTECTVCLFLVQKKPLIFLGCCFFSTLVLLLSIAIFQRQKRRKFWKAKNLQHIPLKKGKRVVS
Chain of GIP acceptor (P48546 22-466 limits assumed): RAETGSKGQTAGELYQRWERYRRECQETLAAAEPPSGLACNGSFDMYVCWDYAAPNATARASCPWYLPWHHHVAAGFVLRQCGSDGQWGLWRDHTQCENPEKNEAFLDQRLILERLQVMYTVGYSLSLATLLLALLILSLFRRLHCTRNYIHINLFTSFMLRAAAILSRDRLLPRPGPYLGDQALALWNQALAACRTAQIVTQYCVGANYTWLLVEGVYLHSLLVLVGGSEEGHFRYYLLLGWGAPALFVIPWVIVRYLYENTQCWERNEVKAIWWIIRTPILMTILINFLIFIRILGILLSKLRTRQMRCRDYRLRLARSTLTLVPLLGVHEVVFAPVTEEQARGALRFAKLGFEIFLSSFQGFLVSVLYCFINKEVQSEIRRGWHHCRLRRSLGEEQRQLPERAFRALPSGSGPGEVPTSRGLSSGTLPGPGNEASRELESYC
Chain of rhFGF21 (Native) (Q9NSA1 29-209 limits assumed): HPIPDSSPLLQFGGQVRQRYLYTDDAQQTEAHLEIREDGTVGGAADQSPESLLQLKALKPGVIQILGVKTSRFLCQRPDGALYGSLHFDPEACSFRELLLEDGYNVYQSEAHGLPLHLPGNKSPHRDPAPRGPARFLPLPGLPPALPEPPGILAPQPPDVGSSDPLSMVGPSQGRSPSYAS
Chain of GLP-1 acceptor (P43220 24-463 limits assumed): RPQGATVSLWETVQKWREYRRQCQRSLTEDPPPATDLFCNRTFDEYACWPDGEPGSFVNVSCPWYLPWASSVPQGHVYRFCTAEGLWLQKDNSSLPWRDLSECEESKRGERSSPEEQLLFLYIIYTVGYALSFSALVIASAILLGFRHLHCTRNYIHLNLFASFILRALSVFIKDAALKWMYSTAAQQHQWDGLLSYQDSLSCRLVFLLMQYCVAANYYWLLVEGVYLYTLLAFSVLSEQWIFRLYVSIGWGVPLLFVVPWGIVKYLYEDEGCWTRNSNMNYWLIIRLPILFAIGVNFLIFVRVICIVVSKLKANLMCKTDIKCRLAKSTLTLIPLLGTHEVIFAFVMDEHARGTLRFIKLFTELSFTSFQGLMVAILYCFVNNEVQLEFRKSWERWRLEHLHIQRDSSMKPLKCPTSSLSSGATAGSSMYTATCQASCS
Chain of Dulaglutide (Fc fusion) (chain): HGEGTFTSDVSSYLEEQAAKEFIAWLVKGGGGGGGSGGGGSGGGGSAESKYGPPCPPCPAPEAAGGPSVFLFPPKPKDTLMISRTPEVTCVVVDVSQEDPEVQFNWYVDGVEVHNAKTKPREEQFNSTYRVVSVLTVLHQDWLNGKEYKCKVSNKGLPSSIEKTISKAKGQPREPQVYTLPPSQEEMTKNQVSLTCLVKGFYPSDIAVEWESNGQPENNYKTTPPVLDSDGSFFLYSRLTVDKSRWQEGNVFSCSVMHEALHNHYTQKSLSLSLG

EC50, cAMP accumulation assay; Mean [1]: 1.07 pM | EC50, cAMP accumulation assay; Stable cell line, n = 6 [1]: 1.45 pM | EC50, cAMP accumulation assay; run 1 [1]: 1.23 pM | EC50, cAMP accumulation assay; run 2 [1]: 0.9 pM
Substance: Dulaglutide (Fc fusion)

EC50, cAMP accumulation assay; Mean [2]: 14.8 pM | EC50, cAMP accumulation assay; run 1 [2]: 15.4 pM | EC50, cAMP accumulation assay; run 2 [2]: 14.1 pM
Substance: GIP(1-39) (from UniProt P09681 52-90) (peptide)

EC50, FGFR1/KLB functional assay; Mean [3]: 0.82 nM | EC50, FGFR1/KLB functional assay; n = 4 [3]: 1.17 nM | EC50, FGFR1/KLB functional assay; run 1 [3]: 0.75 nM | EC50, FGFR1/KLB functional assay; run 2 [3]: 0.88 nM
Substance: rhFGF21 (Native) (from UniProt Q9NSA1 29-209) (ligand)

IC50, NF-κB reporter gene luciferase assay with IL-1β; Mean [4]: 47.5 pM | IC50, NF-κB reporter gene luciferase assay with IL-1β; n = 2 [4]: 68.6 pM | IC50, NF-κB reporter gene luciferase assay with IL-1β; run 1 [4]: 39.9 pM | IC50, NF-κB reporter gene luciferase assay with IL-1β; run 2 [4]: 51.5 pM | IC50, NF-κB reporter gene luciferase assay with IL-1β; run 3 [4]: 46.6 pM | IC50, NF-κB reporter gene luciferase assay with IL-1β; run 4 [4]: 51.9 pM
Substance: rhIL-1RA (Native) (from UniProt P18510 26-177) (ligand)
